This is an account of results in patent US20240400654A1.

Where a chain is given by its changes, count along the chain named. In names and notes the source's numbering stands. Several values for one entry are separate records, joined by “and”; a condition that tells them apart may be missing. Equal values may be shown once.

For assay [1], the target named is HRgpA-6H (Porphyromonas gingivalis) (UniProt P28784). As to the kind of experiment: ELISA on coated HRgpA-6H, OD relative to parental Fab. A general note: An ELISA detects its analyte on a solid surface through an enzyme-linked reagent.
The target is the same in assay [2]. Nature of the assay: ELISA, FASEBA Fab supernatant on coated HRgpA-6H.
Assay [3] shares this target. Nature of the assay: ELISA, FASEBA screening, coated HRgpA-6H 0.0625 ug/ml.
Assay [4] has the same target. Nature of the assay: ELISA, FASEBA screening, coated HRgpA-6H; variant OD over parental WT Fab OD.

B1: KB001 mouse Fab variant VL T100V (Fab, V domains shown)
VH: EVQLKQSGPGLVAPSQSLSITCTVSGFSLSIYSVHWVRQPPGKGLEWLGMIWGGGSSDYNSALKSRLSISKDNSKSQVFLKMNSLQTDDTAMYYCARNGNFYAMDYWGQGTSVTVSS
VL: QIVLTQSPAIMSASLGERVTMTCTASSSVSSSFLHWYQQKPGSSPQLWIYSTSNLASGVPARFSGSGSGTSYSLTISSMEAEDAATYYCHQYHHSPYIYVFGGGTKLEIK
Consider B1, for which, in assay [1], the Ratio OD(Variant)/OD(WT) is 0.881 fold and 0.818 fold. The OD450 nm in assay [2] is 0.461 and 0.428.

B2: KB001 parental mouse Fab FASEBA variant VH K64H (Fab, V domains shown)
VH: B1 VH with K64H
VL: B1 VL with V100T
For the molecule B2, the OD450 nm in assay [3] is 0.788 and 0.806 and 0.73. Besides, in assay [4], the Ratio OD(Variant)/OD(WT) was 0.953 and 0.975 and 0.883.

B3: KB001 parental mouse Fab FASEBA variant VH N100P (Fab, V domains shown)
VH: B1 VH with N100P
VL: B1 VL with V100T
As to B3, the OD450 nm in assay [3] came out at 0.757. Also, in assay [4], the Ratio OD(Variant)/OD(WT) was found to be 0.894.

B4: KB001 parental mouse Fab FASEBA variant VH N100L (Fab, V domains shown)
VH: B1 VH with N100L
VL: B1 VL with V100T
For B4, the OD450 nm in assay [3] is 0.817 and 0.736 and 0.789. Further, in assay [4], the Ratio OD(Variant)/OD(WT) is 0.965 and 0.869 and 0.932.

B5: KB001 parental mouse Fab FASEBA variant VH N100R (Fab, V domains shown)
VH: B1 VH with N100R
VL: B1 VL with V100T
As to B5, the OD450 nm in assay [3] came out at 0.788. In addition, in assay [4], the Ratio OD(Variant)/OD(WT) worked out at 0.93.

B6: KB001 parental mouse Fab FASEBA variant VH G99S (Fab, V domains shown)
VH: B1 VH with G99S
VL: B1 VL with V100T
As to B6, the OD450 nm in assay [3] was 0.769 and 0.739 and 0.77. Besides, the Ratio OD(Variant)/OD(WT) in assay [4] is 0.965 and 0.927 and 0.966.

B7: KB001 parental mouse Fab FASEBA variant VH N100Q (Fab, V domains shown)
VH: B1 VH with N100Q
VL: B1 VL with V100T
Molecule B7 displayed an OD450 nm in assay [3] of 0.846. The Ratio OD(Variant)/OD(WT) in assay [4] stood at 0.999.

B8: KB001 parental mouse Fab FASEBA variant VH S65H (Fab, V domains shown)
VH: B1 VH with S65H
VL: B1 VL with V100T
Turning to B8, in assay [3], the OD450 nm was 0.823 and 0.767. The Ratio OD(Variant)/OD(WT) in assay [4] is 0.995 and 0.927.

B9: KB001 parental mouse Fab FASEBA variant VH N100C (Fab, V domains shown)
VH: B1 VH with N100C
VL: B1 VL with V100T
For B9, the OD450 nm in assay [3] turned out to be 0.688. In addition, the Ratio OD(Variant)/OD(WT) in assay [4] was found to be 0.812.

B10: KB001 parental mouse Fab FASEBA variant VH N100G (Fab, V domains shown)
VH: B1 VH with N100G
VL: B1 VL with V100T
Regarding B10, in assay [3], the OD450 nm was 0.769 and 0.814. Also, the Ratio OD(Variant)/OD(WT) in assay [4] was 0.908 and 0.961.

B11: KB001 parental mouse Fab FASEBA variant VH S65R (Fab, V domains shown)
VH: B1 VH with S65R
VL: B1 VL with V100T
As for B11, the OD450 nm in assay [3] turned out to be 0.794. Further, the Ratio OD(Variant)/OD(WT) in assay [4] came to 0.96.

B12: KB001 parental mouse Fab FASEBA variant VH G99Y (Fab, V domains shown)
VH: B1 VH with G99Y
VL: B1 VL with V100T
Regarding B12, the OD450 nm in assay [3] came out at 0.769. For the same molecule, the Ratio OD(Variant)/OD(WT) in assay [4] came out at 0.965.

B13: KB001 parental mouse Fab FASEBA variant VH S65F (Fab, V domains shown)
VH: B1 VH with S65F
VL: B1 VL with V100T
On to B13, for which the OD450 nm in assay [3] turned out to be 0.74. Also, in assay [4], the Ratio OD(Variant)/OD(WT) was found to be 0.895.

B14: KB001 parental mouse Fab FASEBA variant VH G99N (Fab, V domains shown)
VH: B1 VH with G99N
VL: B1 VL with V100T
As for B14, the OD450 nm in assay [3] was 0.639 and 0.698. Moreover, in assay [4], the Ratio OD(Variant)/OD(WT) is 0.802 and 0.876.

B15: KB001 parental mouse Fab FASEBA variant VH K64M (Fab, V domains shown)
VH: B1 VH with K64M
VL: B1 VL with V100T
Molecule B15 returned an OD450 nm in assay [3] of 0.784. In addition, in assay [4], the Ratio OD(Variant)/OD(WT) is 0.948.

B16: KB001 parental mouse Fab FASEBA variant VH K64G (Fab, V domains shown)
VH: B1 VH with K64G
VL: B1 VL with V100T
For B16, in assay [3], the OD450 nm was 0.811. The Ratio OD(Variant)/OD(WT) in assay [4] is 0.981.

B17: KB001 parental mouse Fab FASEBA variant VH K64E (Fab, V domains shown)
VH: B1 VH with K64E
VL: B1 VL with V100T
In turn, B17 showed an OD450 nm in assay [3] of 0.789. Further, the Ratio OD(Variant)/OD(WT) in assay [4] was found to be 0.954.

B18: KB001 parental mouse Fab FASEBA variant VH N100F (Fab, V domains shown)
VH: B1 VH with N100F
VL: B1 VL with V100T
For the molecule B18, the OD450 nm in assay [3] is 0.779. Also, the Ratio OD(Variant)/OD(WT) in assay [4] stood at 0.92.

B19: KB001 parental mouse Fab FASEBA variant VH K64L (Fab, V domains shown)
VH: B1 VH with K64L
VL: B1 VL with V100T
For the molecule B19, the OD450 nm in assay [3] stood at 0.664. Also, in assay [4], the Ratio OD(Variant)/OD(WT) was determined as 0.803.

B20: KB001 parental mouse Fab FASEBA variant VH N100T (Fab, V domains shown)
VH: B1 VH with N100T
VL: B1 VL with V100T
Turning to B20, the OD450 nm in assay [3] was 0.756 and 0.783. For the same molecule, the Ratio OD(Variant)/OD(WT) in assay [4] was 0.893 and 0.924.

B21: KB001 parental mouse Fab FASEBA variant VH G99F (Fab, V domains shown)
VH: B1 VH with G99F
VL: B1 VL with V100T
The molecule B21 gave an OD450 nm in assay [3] of 0.771. Further, in assay [4], the Ratio OD(Variant)/OD(WT) worked out at 0.967.

B22: KB001 parental mouse Fab FASEBA variant VH N100A (Fab, V domains shown)
VH: B1 VH with N100A
VL: B1 VL with V100T
With B22, the OD450 nm in assay [3] is 0.809. The Ratio OD(Variant)/OD(WT) in assay [4] amounted to 0.955.

B23: KB001 parental mouse Fab FASEBA variant VH N100I (Fab, V domains shown)
VH: B1 VH with N100I
VL: B1 VL with V100T
Turning to B23, in assay [3], the OD450 nm was 0.796 and 0.833. Besides, the Ratio OD(Variant)/OD(WT) in assay [4] is 0.94 and 0.983.

B24: KB001 parental mouse Fab FASEBA variant VH K64Q (Fab, V domains shown)
VH: B1 VH with K64Q
VL: B1 VL with V100T
On to B24, for which, in assay [3], the OD450 nm turned out to be 0.789. Moreover, the Ratio OD(Variant)/OD(WT) in assay [4] was determined as 0.954.

B25: KB001 parental mouse Fab FASEBA variant VH N100S (Fab, V domains shown)
VH: B1 VH with N100S
VL: B1 VL with V100T
Regarding B25, the OD450 nm in assay [3] is 0.799 and 0.844 and 0.805. Also, the Ratio OD(Variant)/OD(WT) in assay [4] was 0.943 and 0.996 and 0.95.

B26: KB001 parental mouse Fab FASEBA variant VH S65G (Fab, V domains shown)
VH: B1 VH with S65G
VL: B1 VL with V100T
B26 yielded an OD450 nm in assay [3] of 0.825. For the same molecule, the Ratio OD(Variant)/OD(WT) in assay [4] was 0.998.

B27: KB001 parental mouse Fab FASEBA variant VH S65L (Fab, V domains shown)
VH: B1 VH with S65L
VL: B1 VL with V100T
In assay [3], B27 came in with an OD450 nm of 0.728. For the same molecule, the Ratio OD(Variant)/OD(WT) in assay [4] came to 0.88.

B28: KB001 parental mouse Fab FASEBA variant VH S65P (Fab, V domains shown)
VH: B1 VH with S65P
VL: B1 VL with V100T
As to B28, the OD450 nm in assay [3] amounted to 0.814. Also, the Ratio OD(Variant)/OD(WT) in assay [4] was 0.984.

B29: KB001 parental mouse Fab FASEBA variant VH N100K (Fab, V domains shown)
VH: B1 VH with N100K
VL: B1 VL with V100T
With B29, the OD450 nm in assay [3] is 0.801 and 0.791. Also, the Ratio OD(Variant)/OD(WT) in assay [4] was 0.946 and 0.934.

B30: KB001 parental mouse Fab FASEBA variant VH N100E (Fab, V domains shown)
VH: B1 VH with N100E
VL: B1 VL with V100T
B30 yielded an OD450 nm in assay [3] of 0.823. Moreover, in assay [4], the Ratio OD(Variant)/OD(WT) was 0.972.

B31: KB001 parental mouse Fab FASEBA variant VH G99A (Fab, V domains shown)
VH: B1 VH with G99A
VL: B1 VL with V100T
Regarding B31, the OD450 nm in assay [3] was 0.74. For the same molecule, the Ratio OD(Variant)/OD(WT) in assay [4] worked out at 0.928.

B32: KB001 parental mouse Fab FASEBA variant VH S65Y (Fab, V domains shown)
VH: B1 VH with S65Y
VL: B1 VL with V100T
The molecule B32 yielded an OD450 nm in assay [3] of 0.724. The Ratio OD(Variant)/OD(WT) in assay [4] stood at 0.875.

B33: KB001 parental mouse Fab FASEBA variant VH S65T (Fab, V domains shown)
VH: B1 VH with S65T
VL: B1 VL with V100T
As to B33, the OD450 nm in assay [3] worked out at 0.759. For the same molecule, the Ratio OD(Variant)/OD(WT) in assay [4] was 0.918.

B34: KB001 parental mouse Fab FASEBA variant VH N100Y (Fab, V domains shown)
VH: B1 VH with N100Y
VL: B1 VL with V100T
On to B34, for which the OD450 nm in assay [3] was 0.757 and 0.784 and 0.699. Moreover, in assay [4], the Ratio OD(Variant)/OD(WT) is 0.894 and 0.926 and 0.825.

B35: KB001 parental mouse Fab FASEBA variant VH K64D (Fab, V domains shown)
VH: B1 VH with K64D
VL: B1 VL with V100T
In turn, B35 registered an OD450 nm in assay [3] of 0.781. In addition, the Ratio OD(Variant)/OD(WT) in assay [4] turned out to be 0.944.

B36: KB001 parental mouse Fab FASEBA variant VH G99C (Fab, V domains shown)
VH: B1 VH with G99C
VL: B1 VL with V100T
For B36, in assay [3], the OD450 nm worked out at 0.776. In addition, the Ratio OD(Variant)/OD(WT) in assay [4] stood at 0.974.
